According to the supplement of paper PMC9170038:

Each sequence was assayed on MS2 coat protein (assay: apparent KD of MS2 coat protein, switch ON state; designed switch direction (-1 OFF switch, 1 ON switch): 1; higher = weaker reporter binding). Conditions: FMN input: 0 or 200 uM; Eterna round: R93 (includes R88 designs).
Method in brief: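 SNAP-549-labelled MS2 coat protein was titrated onto designed RNA switches that had been transcribed on-chip from Illumina sequencing clusters. Amounts doubled from 0.7 or 1.5 nM to 3 µM in 100 mM Tris-HCl pH 7.5, 80 mM KCl, 4 mM MgCl2, with constant ligand or without. Apparent KD is the median per design of normalised cluster binding-curve fits.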
In the case of “AGGAAACAUGAGGAUCACCCAUGUAAAAAUAUGGGAGGAUAUACAAAGACGAAAGUGAGAGUAGAAGGCCUAAAAG [Garnet 18]”, the “apparent KD of MS2 coat protein” value is reported as 35.6 nM. In the case of “AUGGUGUAGGUACAGGAUAUGUUGCUCGUAACAUGAGGAUCACCCAUGUACCUAUGAGAUUAAAUGCAGAAGGGUGCACACCACG [Usbivece]”, the “apparent KD of MS2 coat protein” value is reported as 70.1 nM. “GAAAAACAUGAGGAUCACCCAUGUAGAAAUAUGGGAGGAUAUACAAUGACGAAAGUCAAUGUAGAAGGCCUGAUAG [JL S1 M-MoE mod 4]” was tested, and the “apparent KD of MS2 coat protein” value was 25.7 nM. In the case of “GAGGACAUAGUAUAGGAUAUAUGAAUAAUUACAUGAGGAUCACCCAUGUGCAUUUAUAUGCGAACAUAGAAGGGUGGUAGUUAUC [SameState2 Malc#32]”, the “apparent KD of MS2 coat protein” value is reported as 41.6 nM. In the case of “GGGAGACAUGAGGAUCACCCAUGUGAGAAGAGGCGAGGAUAUCGAAAAAAAAAAAAAAAACGAGAAGGCGCGAGAU [salish99-SS1-004]”, the “apparent KD of MS2 coat protein” value is reported as 74.4 nM. For “GAAAAACAUGAGGAUCACCCAUGUUAAUAUAUGGGAGGAUAUACAAAGACGAAAGUCAAAGUAGAAGGCCUAAAAG”, the “apparent KD of MS2 coat protein” value was 19.7 nM. “AACAAUCUAUCUGAGGAUAUCAUUAAAAAGACAUGAGGAUCACCCAUGUAGCAGGAAACUGCAUAUGAGAAGGCAGAUAGAUUGA [SS2: 1123]” was tested, and the “apparent KD of MS2 coat protein” value was 12.5 nM. “AAUACACAUAGUCAGGAUAUCAAAACUAAGACAUGAGGAUCACCCAUGUAAUAAGUAAAAGUAAAUGAGAAGGGACAGGGUGACC [JR_SS002_Sub404]” was tested, and the “apparent KD of MS2 coat protein” value was 130 nM. “GAGGACAUAGUUCAGGAUAUAUGAAUAGUCACAUGAGGAUCACCCAUGUCCAUUUAUAUGGGCACAUAGAAGGGAGGUAGUUAUC [SameState2 Malc#26]” was tested, and the “apparent KD of MS2 coat protein” value was 205 nM. In the case of “GUUGAACAUGAGGAUCACCCAUGUCUCAACAGUCAAGGAUAUGGGUCAUGCAGAUGAAUACCAGAAGGUGAAUAAA [Zaorxe]”, the “apparent KD of MS2 coat protein” value is reported as 15.8 nM. In the case of “AACUACAUUAUGAAGGAUAUCCGCGUCUAGACAUGAGGAUCACCCAUGUAUACUUGGAUCAUGCAGGAGAAGGUCAAGGGUGAUU [JR_SS002_Sub1209]”, the “apparent KD of MS2 coat protein” value is reported as 178 nM. With “AAAAAACAUGAGGAUCACCCAUGUCCUCGGACAUGAGGAUAUGUACAGACUUCGGUCUGUACAGAAGGCAUGUAAA [SS1 - 1018]” the “apparent KD of MS2 coat protein” value was 901 nM. With “AGAAAUAAAAGAGAGGAUAUCCAAAAGGGAACAUGAGGAUCACCCAUGUAAAUGAAAAUAAAAUGGGAGAAGGCUCAAAAUAAAG [80% More Helter Skelter 2]” the “apparent KD of MS2 coat protein” value was 54.6 nM. In the case of “AAAAAUCCAGCGCAGGAUAUCGCAGGGUGCACAUGAGGAUCACCCAUGUGUACCCAAACACCCUGCGAGAAGGGCGUUGGAAAAAA [SameState-I]”, the “apparent KD of MS2 coat protein” value is reported as 9.65 nM. For “AGCUAACAUGAGGAUCACCCAUGUCCGCUAAACCAAGGAUAUGGGACGAAUAAAAUCGGACCAGAAGGUGGCCGAC [Qureaed]”, the “apparent KD of MS2 coat protein” value was 218 nM. With “GAAAAACAUGAGGAUCACCCAUGUGAAAAUAUGGGAGGAUAUACGAAGUCGAAAGUCAGAGUAGAAGGCCUAAAAG [Garnet 33]” the “apparent KD of MS2 coat protein” value was 26.7 nM. With “GAAAAACAUGAGGAUCACCCAUGUGAAAAUAUGGGAGGAUAUACUAAGACGAAAGUCGAGGUAGAAGGCCUAAAAG [Same State 1.4h (Mat - Mod of Eli - )]” the “apparent KD of MS2 coat protein” value was 24.7 nM. In the case of “AAAUAAAUAAGAGAGGAUAUGUCAGAGAAAACAUGAGGAUCACCCAUGUGAUAAUAAAAAGGGUGACAGAAGGCUCAAAACAAAC [Topaz 52]”, the “apparent KD of MS2 coat protein” value is reported as 19.9 nM. “AAAGACAUGGUGCAGGAUAUAUUAAUAGUCACAUGAGGAUCACCCAUGUUCAUUUAUAUGAACGAGUAGAAGGGCGAUGAAAAAA [SameState2 Malc#7]” was tested, and the “apparent KD of MS2 coat protein” value was 38.4 nM. For “AAUAUAUUAAGUGAGGAUAUCGAAGAAAAAACAUGAGGAUCACCCAUGUGGGAAACCUGGUCGGGUGAGAAGGCACUUAAUAUAU [Samwise Clockwise 27 - Jieux - Same State 2]”, the “apparent KD of MS2 coat protein” value was 45.5 nM. With “AAAAAACAUGAGGAUCACCCAUGUGAAAAUAUGGAAGGAUAUACCGAAAAAAAAAAAAAGGUAGAAGGUCUAAAAA [SS! 1 MT 4]” the “apparent KD of MS2 coat protein” value was 23 nM. In the case of “AUAAAACAUGAGGAUCACCCAUGUAGAAAUAUGGGAGGAUAUACAAAGACGAAAGUCAAGGUAGAAGGCCUAAAAG [Mat - Same State 1 - Meechl mod - D118]”, the “apparent KD of MS2 coat protein” value is reported as 39.1 nM. In the case of “AAUCCAACUAGUCAGGAUAUCAGGCGUAAGACAUGAGGAUCACCCAUGUCCUAAGAACAAGUAACUGAGAAGGGACAGGGCGACC [JR_SS002_Sub411]”, the “apparent KD of MS2 coat protein” value is reported as 57.6 nM. For “AAAAAAAAUGUGUAGGAUAUCAGUAAAAAUACAUGAGGAUCACCCAUGUUCAAAAAAAAAAAAACUGAGAAGGACGUGGAUGGUCC [Design 3]”, the “apparent KD of MS2 coat protein” value was 12.3 nM. “AGGAAACAUGAGGAUCACCCAUGUAAAGAAGGGUGAGGAUAUACAAAGAAAAGAAAGAAAGUAGAAGGCACAAAAG [Mongoose]” was tested, and the “apparent KD of MS2 coat protein” value was 233 nM. In the case of “AUUAAACAUGAGGAUCACCCAUGUGGCAAAAGCACAGGAUAUAGGAGUCCGAGCAGACAACUAGAAGGGUGGAAAA [Rixelexe]”, the “apparent KD of MS2 coat protein” value is reported as 28.8 nM. “AUAUGAGCUAUGGAGGAUAUCCAUAAUAAAACAUGAGGAUCACCCAUGUAAGAAAGAAAAGAAUGGGAGAAGGCCAUAGCUCAAU [SS 2 M44]” was tested, and the “apparent KD of MS2 coat protein” value was 11.6 nM. In the case of “GAAAAACAUGAGGAUCACCCAUGUAGAAAUAUGGGAGGAUAUACGAACUCGAAAGUCAAAGUAGAAGGCCUAAAAG [Garnet 30]”, the “apparent KD of MS2 coat protein” value is reported as 47 nM. With “AAUAUACAUGAGGAUCACCCAUGUUUUAAUAACUGAGGAUAUACGGGUGAAAACAGCAUAGUAGAAGGCAGAAAAA [SameState1 Malc#5]” the “apparent KD of MS2 coat protein” value was 42.2 nM. With “AAUAAACAUGAGGAUCACCCAUGUACCGACCACUAAGGAUAUGGGCGAAUAACAGCUCGGCCAGAAGGUAGAGGUG [Gebimarabi]” the “apparent KD of MS2 coat protein” value was 46.7 nM. In the case of “AACAAUCUAUCUGAGGAUAUGUGUCAAAAGACAUGAGGAUCACCCAUGUAAAAACAUGGGAAAACACAGAAGGCAGAUAGAUUGA [SS2: 1151]”, the “apparent KD of MS2 coat protein” value is reported as 369 nM. For “AAGAAACAUGAGGAUCACCCAUGUAAGAAUAUGGGAGGAUAUACAAGGACAAGAGUCAAGGUAGAAGGCCUAAGAA [Mat - Same State 1 - Meechl mod - D143]”, the “apparent KD of MS2 coat protein” value was 33 nM. With “AACAAUCUAUCUGAGGAUAUCAUGACAAAGACAUGAGGAUCACCCAUGUGCAGGAAAACUGCUUAUGAGAAGGCAGAUAGAUUGA [SS2: 1113]” the “apparent KD of MS2 coat protein” value was 11 nM. For “AACAAUCUAUCUGAGGAUAUGAUGUCAAAGACAUGAGGAUCACCCAUGUGCAGGAAAACUGCAUAUCAGAAGGCAGAUAGAUUGA [SS2: 1103]”, the “apparent KD of MS2 coat protein” value was 15.6 nM. With “GGGAGGAAGAGAGAGGAUAUCCAAAGGAAAACAUGAGGAUCACCCAUGUAAAAGGUAGGAAAUUGGGAGAAGGCUCAAAAGAGGG [salish99-ss2-038]” the “apparent KD of MS2 coat protein” value was 29.8 nM. With “AAAACACAUGAGGAUCACCCAUGUGCCUAAUUCGCAGGAUAUUUCUCGAUUAAAUGAUAGGAAGAAGGGUGAUAAA [Nob's Hobby 36 - Jieux - Same State 1]” the “apparent KD of MS2 coat protein” value was 186 nM. With “AAAAAACAUGAGGAUCACCCAUGUCAAAAGACAUGAGGAUAUGUACAGACUUCGGUCUGUACAGAAGGCAUGUAAA [SS1 - 1015]” the “apparent KD of MS2 coat protein” value was 24.6 nM. For “AAAGAAGAAAGCGAGGAUAUGGAUGGGUAAACAUGAGGAUCACCCAUGUAUAAGAAAGAAAGAAACCAGAAGGCGCAAAAGAAAA [Khenemmaatre Hakor]”, the “apparent KD of MS2 coat protein” value was 70 nM. For “GUAGACAUAGUUCAGGAUAUAUGAAUAGUCACAUGAGGAUCACCCAUGUGCAUUUAUAUGCGCACAUAGAAGGGAGGUAGUUAAC [Mat - Same state - Malcolm Mod - D122]”, the “apparent KD of MS2 coat protein” value was 22.3 nM. “AAAAAACAUGAGGAUCACCCAUGUAAAAAAAACACAGGAUAUCCCUUUUUUAAAUGGGAGGGAGAAGGGUGAAAAA [Nob's Hobby 12 - Jieux - Same State 1]” was tested, and the “apparent KD of MS2 coat protein” value was 17.4 nM. With “AAAAAACAUGAGGAUCACCCAUGUCCUCGGACAUGAGGAUAUGUACAGACUUCGGUCUGUACAGAAGGCAUGAAAA [SS1 - 1014]” the “apparent KD of MS2 coat protein” value was 713 nM. With “AAAUAACAUGAGGAUCACCCAUGUUACAACAAUACAGGAUAUGUGGGUGAAAAUAGCAUGACAGAAGGGUACUGUA [SameState1 Malc#33]” the “apparent KD of MS2 coat protein” value was 237 nM. With “AAAAAACAUGAGGAUCACCCAUGUAAAAAAAACACAGGAUAUCCCUUUUUUAAAUAAAAAGGAGAAGGGUGAAAAA [Nob's Hobby 8 - Jieux - Same State 1]” the “apparent KD of MS2 coat protein” value was 24.1 nM.
